In patent US20220267414A1:

Experiments:
[1] = target: canine parvovirus CPV-2b (canine parvovirus CPV-2b); assay: cell-based or functional assay
[2] = target: recombinant canine parvovirus CPV2b capsid (Advanced ImmunoChemical Inc Cat #8-CPV) (canine parvovirus CPV2b); assay: BLI (Octet), biotinylated antibody on streptavidin tips, VLP at 40 µg/mL as analyte, 1:1 fit

## irrelevant canine IgG (antibody)
[1]
  CPV-2b HI (hemagglutination inhibition): < 20

B1: Chimeric Canine Mab A v2 (antibody)
heavy: QVQLKESGPGLVAPSQTLSLTCTVSGFSLSSYHVHWVRQPPGKGLEWLGVMWNDGDTSYNLALNSRLSISRDTSKSQVFFKMSSLQTEDTATYYCARPELPGLTYGVWFPYWGQGTLVTVSAASTTAPSVFPLAPSCGSTSGSTVALACLVSGYFPEPVTVSWNSGSLTSGVHTFPSVLQSSGLYSLSSMVTVPSSRWPSETFTCNVAHPASKTKVDKPVPKRENGRVPRPPDCPKCPAPEMLGGPSVFIFPPKPKDTLLIARTPEVTCVVVDLDPEDPEVQISWFVDGKQMQTAKTQPREEQFNGTYRVVSVLPIGHQDWLKGKQFTCKVNNKALPSPIERTISKARGQAHQPSVYVLPPSREELSKNTVSLTCLIKDFFPPDIDVEWQSNGQQEPESKYRTTPPQLDEDGSYFLYSKLSVDKSRWQRGDTFICAVMHEALHNHYTQESLSHSPGK
light: DIVMTQTPASMSISVGDRVTMNCKASQNVDSNVDWYQQKTGQSPNLLIYKASNRNTGVPDRFTGSGSGTDFTFTISNMQAEDLAVYYCMQSTSYPLTFGSGTKLEIKRNDAQPAVYLFQPSPDQLHTGSASVVCLLNSFYPKDINVKWKVDGVIQDTGIQESVTEQDKDSTYSLSSTLTMSSTEYLSHELYSCEITHKSLPSTLIKSFQRSECQRVD
[2]
  Kd: 0.0978 nM

B2: Chimeric Canine Mab B v2 (antibody, V domains shown)
VH: QVQLKESGPGLVQPSETLSLTCTVSGFSLTSYGVSWVRQPPGKGLEWMGTMWNDGDTDYNSALRSKLSISRDTSKSQVFLKMNSLQTEDTAIYYCARSQLPGYNLRGWFVYWGQGTLVIVSA
VL: DIQMTQSPPVLSASVGDRVTLSCKASHNINKNLEWYQQKLGEAPKLLIYYANNLQTGIPSRFSGSGSGTDYTLTISSLQPEDVATYYCYQYNSGHTFGAGTKLEIKR
[2]
  Kd: 0.00938 nM
